The record followed here is patent US20120225824A1.

The test has as its target MIS type II receptor (MISRII) (human) (UniProt Q16671). Put plainly: cell-based or functional assay.
UniProt Q16671, sequence (Q16671 18-573): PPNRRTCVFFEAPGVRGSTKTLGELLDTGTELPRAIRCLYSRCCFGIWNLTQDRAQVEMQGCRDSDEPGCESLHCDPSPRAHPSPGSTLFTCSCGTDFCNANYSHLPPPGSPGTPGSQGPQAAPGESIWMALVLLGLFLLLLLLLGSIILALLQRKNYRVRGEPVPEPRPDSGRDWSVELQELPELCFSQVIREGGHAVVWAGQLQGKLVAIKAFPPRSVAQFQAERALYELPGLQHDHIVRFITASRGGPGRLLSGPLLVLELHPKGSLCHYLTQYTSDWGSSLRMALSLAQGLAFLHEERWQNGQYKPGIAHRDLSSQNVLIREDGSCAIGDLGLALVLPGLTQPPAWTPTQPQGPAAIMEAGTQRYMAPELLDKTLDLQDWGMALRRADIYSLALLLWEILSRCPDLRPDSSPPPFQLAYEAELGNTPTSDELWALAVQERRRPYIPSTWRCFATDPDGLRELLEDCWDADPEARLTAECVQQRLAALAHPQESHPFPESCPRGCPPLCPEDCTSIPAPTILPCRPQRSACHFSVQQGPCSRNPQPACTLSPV

In turn, “rhMIS (R&D Systems, Minneapolis, Minn.) (from UniProt P03971 452-560) (ligand)” yielded a decrease in viable cells (cultured endometrial cells, rhMIS 100 ng/mL, 72 hours) of 14%.

In the case of “MIS over-expressed from an MIS protein expression construct (ligand)”, the decrease in cell proliferation (cultured endometrial cells transiently transfected with an MIS protein expression construct) was found to be 8%.
